Laboratory results taken from paper PMC10284700.

Biological target: wild-type full-length human FGFR1c, P11362
Experiment: proximity ligation assay (PLA) on L6 cells
Settings: chain shown with the change; L6-FGFR1cWT cells cotreated with FGF23ΔHBS and soluble αKlotho; n = 6 microscope fields, mean ± SD; parent: est. 2.3; read off a plot

Chain of wild-type full-length human FGFR1c, P11362 (P11362 22-822): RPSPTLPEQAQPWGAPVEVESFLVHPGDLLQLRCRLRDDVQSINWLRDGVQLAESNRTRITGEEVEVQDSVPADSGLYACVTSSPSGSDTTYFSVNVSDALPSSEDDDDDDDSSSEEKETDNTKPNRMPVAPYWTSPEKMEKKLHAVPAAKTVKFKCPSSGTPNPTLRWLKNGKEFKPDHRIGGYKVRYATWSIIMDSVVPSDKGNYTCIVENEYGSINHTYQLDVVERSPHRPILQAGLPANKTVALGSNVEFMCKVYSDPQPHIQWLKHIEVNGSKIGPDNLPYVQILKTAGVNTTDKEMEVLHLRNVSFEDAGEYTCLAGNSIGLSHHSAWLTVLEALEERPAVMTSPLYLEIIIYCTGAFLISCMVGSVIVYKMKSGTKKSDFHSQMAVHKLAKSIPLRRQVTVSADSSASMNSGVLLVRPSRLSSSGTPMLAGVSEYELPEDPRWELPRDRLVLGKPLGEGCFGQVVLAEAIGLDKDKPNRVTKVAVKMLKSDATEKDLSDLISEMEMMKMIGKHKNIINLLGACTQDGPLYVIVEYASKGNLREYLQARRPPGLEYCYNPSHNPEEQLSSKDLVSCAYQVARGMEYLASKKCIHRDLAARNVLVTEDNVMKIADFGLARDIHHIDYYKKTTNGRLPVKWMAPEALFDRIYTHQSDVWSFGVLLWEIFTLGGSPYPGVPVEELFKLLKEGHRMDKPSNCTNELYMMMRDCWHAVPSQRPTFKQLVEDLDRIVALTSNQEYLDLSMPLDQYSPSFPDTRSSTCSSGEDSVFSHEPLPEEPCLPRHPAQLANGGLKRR

response (positive point/cell number): 1.2
B1: full-length mature human FGF23 (residues Tyr25 to Ile251), Q9GZV9 R48A; R140A (protein)
chain: MLGARLRLWVCALCSVCSMSVLRAYPNASPLLGSSWGGLIHLYTATAANSYHLQIHKNGHVDGAPHQTIYSALMIRSEDAGFVVITGVMSRRYLCMDFRGNIFGSHYFDPENCRFQHQTLENGYDVYHSPQYHFLVSLGAAKRAFLPGMNPPPYSQFLSRRNEIPLIHFNTPIPRRHTRSAEDDSERDPLNVLKPRARMTPAPASCSQELPSAEDNSPMASDPLGVVRGGRVNTHAGGTGPEGCRPFAKFI
